Assay results taken from PMC8352597.

Columns and labels:
[1] = biological target: microtubules polymerised from porcine brain tubulin (porcine) (UniProt P02550); assay: TIRF microscopy (sfGFP fluorescence intensity on immobilised microtubules); taxol-stabilized microtubules immobilised on the glass surface, sfGFP-DCLK1 flowed in; no ATP; 60 mM HEPES pH 7.4, 50 mM K acetate, 2 mM Mg acetate, 1 mM EGTA, 10% glycerol, biotin-BSA, Pluronic, κ-casein, 10 μM …; KD from a one-site-binding hyperbola fit of intensity against concentration
microtubules polymerised from porcine brain tubulin (porcine), sequence (P02550 whole entry, chain 1 of 2): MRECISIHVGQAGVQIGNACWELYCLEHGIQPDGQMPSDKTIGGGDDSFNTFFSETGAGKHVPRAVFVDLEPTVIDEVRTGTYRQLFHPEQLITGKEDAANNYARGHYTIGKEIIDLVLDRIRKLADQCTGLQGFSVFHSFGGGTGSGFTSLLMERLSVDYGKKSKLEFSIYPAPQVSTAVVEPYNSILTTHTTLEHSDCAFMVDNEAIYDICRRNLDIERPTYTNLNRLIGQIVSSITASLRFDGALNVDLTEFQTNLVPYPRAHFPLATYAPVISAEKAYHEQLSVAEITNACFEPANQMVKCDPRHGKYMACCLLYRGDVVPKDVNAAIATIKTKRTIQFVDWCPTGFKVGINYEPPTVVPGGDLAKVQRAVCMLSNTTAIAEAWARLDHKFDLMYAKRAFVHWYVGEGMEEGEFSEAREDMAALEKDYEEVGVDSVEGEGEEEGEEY
microtubules polymerised from porcine brain tubulin (porcine), sequence (P02554 whole entry, chain 2 of 2, further chain): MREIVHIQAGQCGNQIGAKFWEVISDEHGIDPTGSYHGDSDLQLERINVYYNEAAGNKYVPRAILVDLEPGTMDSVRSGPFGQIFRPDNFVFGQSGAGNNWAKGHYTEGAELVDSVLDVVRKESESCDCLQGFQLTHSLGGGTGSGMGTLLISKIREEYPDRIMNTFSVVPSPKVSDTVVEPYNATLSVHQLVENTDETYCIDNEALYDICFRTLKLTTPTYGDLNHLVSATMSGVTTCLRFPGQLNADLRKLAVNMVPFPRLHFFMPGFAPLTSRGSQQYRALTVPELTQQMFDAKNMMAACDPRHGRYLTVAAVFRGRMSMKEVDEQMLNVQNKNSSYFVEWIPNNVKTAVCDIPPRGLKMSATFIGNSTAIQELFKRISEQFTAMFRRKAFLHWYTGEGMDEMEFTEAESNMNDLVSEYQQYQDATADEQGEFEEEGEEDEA

[2] = biological target: microtubules polymerised from porcine brain tubulin (porcine) (UniProt P02550); assay: co-sedimentation; as a5, but DCLK1 pre-incubated with 2 mM ATP at 25°C for 30 min
[3] = biological target: microtubules polymerised from porcine brain tubulin (porcine) (UniProt P02550); assay: TIRF microscopy (sfGFP fluorescence intensity on immobilised microtubules); as a1, but DCLK1 incubated with 2 mM ATP for 30 min at 25°C before it was flowed onto immobilised taxol-stabilized microtubules; KD from a one-site-binding hyperbola fit
[4] = biological target: microtubules polymerised from porcine brain tubulin (porcine) (UniProt P02550); assay: TIRF microscopy (sfGFP fluorescence intensity on immobilised microtubules); as a3, but DCLK1 pre-incubated with 2 mM ATP for 30 min at 25°C
[5] = biological target: microtubules polymerised from porcine brain tubulin (porcine) (UniProt P02550); assay: co-sedimentation; 500 nM sfGFP-DCLK1 with 2 μM taxol-stabilized microtubules, 25°C 20 min, pelleted at 90,000 xg; 50 mM Tris pH 8, 150 mM K acetate, 2 mM Mg acetate, 1 mM EGTA, 10% glycerol; DCLK1 pre-incubated 30 min without ATP
[6] = biological target: microtubules polymerised from porcine brain tubulin (porcine) (UniProt P02550); assay: TIRF microscopy (sfGFP fluorescence intensity on immobilised microtubules); non-stabilized GDP microtubules grown from GMPCPP seeds fixed to the coverslip; 10 nM DCLK1 with 10 uM tubulin and 2 mM GTP in BRB80-based assay buffer; DCLK1 pre-incubated 30 min at 25°C without ATP

“sfGFP-DCLK1 wild type (mouse, aa 1-740), treated with lambda phosphatase after purification (natural protein)” was tested, and the microtubule-bound fluorescence intensity at 3 nM [1] was 15100 and the microtubule-bound fluorescence intensity at 25 nM [1] was 18200.
“sfGFP-DCLK1-T688A (mouse, full length), co-expressed with lambda phosphatase, incubated 30 min with 2 mM ATP (natural protein)” showed a percent of DCLK1 that co-pelleted with microtubules [2] of 7.9%.
Work on “sfGFP-DCLK1-ΔC DC2-4A (T189, S193, T218, S228 to alanine), co-expressed with lambda phosphatase, incubated with ATP (domain or fragment)” yielded a microtubule-bound fluorescence intensity at 5 nM [3] of 2480 and a microtubule-bound fluorescence intensity at 20 nM [3] of 3500.
“sfGFP-DCLK1-ΔC (mouse, aa 1-648), co-expressed with lambda phosphatase, hyperphosphorylated by 30 min with 2 mM ATP (domain or fragment)” gave a percent of DCLK1 that co-pelleted with microtubules [2] of 6.9%, a microtubule-bound fluorescence intensity at 10 nM [4] of 1580 and a microtubule-bound fluorescence intensity at 5 nM [3] of 988. The microtubule-bound fluorescence intensity at 20 nM [3] was 1580.
Work on “sfGFP-DCLK1-ΔC (mouse, aa 1-648), treated with lambda phosphatase after purification (domain or fragment)” yielded a microtubule-bound fluorescence intensity at 3 nM [1] of 12000 and a microtubule-bound fluorescence intensity at 25 nM [1] of 21200.
“sfGFP-DCLK1-ΔC DC2-4A (T189, S193, T218, S228 to alanine), co-expressed with lambda phosphatase, not incubated with ATP (domain or fragment)” was tested, and the microtubule-bound fluorescence intensity at 5 nM [1] was 8550 and the microtubule-bound fluorescence intensity at 20 nM [1] was 19900.
“sfGFP-DCLK1 wild type (mouse, aa 1-740), co-expressed with lambda phosphatase, not incubated with ATP (natural protein)” was tested, and the percent of DCLK1 that co-pelleted with microtubules [5] was 99.3% and the microtubule-bound fluorescence intensity at 10 nM [6] was 15000.
Work on “sfGFP-DCLK1 wild type (mouse, aa 1-740), expressed in bacteria under standard conditions (natural protein)” yielded a microtubule-bound fluorescence intensity at 3 nM [1] of 2750 and a microtubule-bound fluorescence intensity at 25 nM [1] of 16100.
In the case of “sfGFP-DCLK1-ΔC (mouse, aa 1-648), co-expressed with lambda phosphatase, not incubated with ATP (domain or fragment)”, the percent of DCLK1 that co-pelleted with microtubules [5] is reported as 96.3%, the microtubule-bound fluorescence intensity at 10 nM [6] is reported as 12100 and the microtubule-bound fluorescence intensity at 5 nM [1] is reported as 12900. The microtubule-bound fluorescence intensity at 20 nM [1] was 23600.
“sfGFP-DCLK1-ΔC DC1-4A (S77, S83, S96, T143 to alanine), co-expressed with lambda phosphatase, incubated with ATP (domain or fragment)” was tested, and the microtubule-bound fluorescence intensity at 5 nM [3] was 4040 and the microtubule-bound fluorescence intensity at 20 nM [3] was 12600.
“sfGFP-DCLK1-T688A (mouse, full length), co-expressed with lambda phosphatase, not incubated with ATP (natural protein)” showed a percent of DCLK1 that co-pelleted with microtubules [5] of 98.9%.
Substance “sfGFP-DCLK1-D511N (kinase-dead, mouse, full length) (natural protein)” has a microtubule-bound fluorescence intensity at 3 nM [1] of 9070 and a microtubule-bound fluorescence intensity at 25 nM [1] of 19700.
Work on “sfGFP-DCLK1 wild type (mouse, aa 1-740), co-expressed with lambda phosphatase, autophosphorylated by 30 min with 2 mM ATP (natural protein)” yielded a percent of DCLK1 that co-pelleted with microtubules [2] of 86.2% and a microtubule-bound fluorescence intensity at 10 nM [4] of 12500.
Substance “sfGFP-DCLK1-ΔC DC1-4A (S77, S83, S96, T143 to alanine), co-expressed with lambda phosphatase, not incubated with ATP (domain or fragment)” has a microtubule-bound fluorescence intensity at 5 nM [1] of 12200 and a microtubule-bound fluorescence intensity at 20 nM [1] of 22300.
